The values that follow are results of earlier work, collected in paper PMC9477365.

For series [1], the target named is fibrin (gamma' site) gamma' chain (Homo sapiens) (UniProt P02671).
The target of series [2] is fibrin (E domain site) E domain (Homo sapiens) (UniProt P02671).

As for thrombin (from UniProt P00734), the Kd in series [1] is 9 µM; in series [2], 2.8 µM.
